In a protein production outcome set (Wang et al. 2014) one finds protein production data, which are given here for 16 sequences.

The nature of the data set: label from the status in PepcDB records.
Take “MILIRLEPGMDLMEEMRAAFSEGVVVTGIGSLHRVRIRTADESELTVEGPLEILSLQGTISPDGVHIHIAVADSEGRVTGGHLRGDSPVRTTAEIAVIPYQGVLRRVMDRRTGYRELLVLE”: the protein production result was “failed”.

Regarding “MEIKGESMQKSKFRRICVFCGSSQGKKSSYQDAAVDLGNELVSRNIDLVYGGGSIGLMGLVSQAVHDGGRHLTGETVGEVRAVADMHQRKAEMAKHSDAFIALPGGYGTLEELLEVITWAQLGIHDKPVGLLNVDGYYNSLLSFIDKAVEEGFISPTAREIIVSAPTAKELVKKLEVN”, the protein production result is given as “not failed”.

“MVPHIDGLFLRDVEAVLTAPDRADLPVLNPGLGTWVDKTTVTWFKFNHQLAVTIGDILQRNFHHAWPTYRMIPVVFKASTLCMHTWDSRHTLTVWTQFNLVARTLYRDNMRAMKRRWARGLDKSRWMTTTVWNDLVDMFTEFGPDDVGFMS”: the protein production result was “failed”.

Take “MVRSCAPHKRKAGRRARLAFGALASHGARENTEVPMRYVLILLLALFGYLLFWPIPVAPVAYHPPETPGFTGDFAENRVLDRAEFVTLPDGEIGPEDLAVMPDGTVYTTSLAGNLYRIDGAVPQLVDRLGGRPLGLKAGPDGALYIADSFRGILRWTAPGEVETVVDQIDGAPVIYANQLDLGRDGTIYFSNSTDRFDPRTLGGTKPTSVMTVWEQSDTGYVARRTPDGRVEKIATGFVYTNGVALSPDEDFLLINETGRARVHRLWLTGDKAGQSEVFLDNLPGYPDNIEAQGDGTYWLAFASPRVPAEALMPYPFLRKVVWRLGPKVRPAPIHRGMLIQFDGTGRILRTVQDPDGRLGITTGGKQVGARFYVMTLDSPGFARMDSADLR”: the protein production result is “failed”.

“MRNPFERMPTVLTADELIDKAFRRAEKAASSFKPRGNKVKKARLREELRVRTVSNVVRDNLRKVLERTPGLSTLPKFYQELVDVLVDRDTFHKAMAGIDWAIRIIRELEERYVERIRYSNDPNEIAELRRQFYGRVASVLRDIDDRLRYLNKAREVLKDLPVVDLEIPTVVIAGHPNVGKSTLLKALTTAKPEIASYPFTTRGINVGQFEDGYFRYQIIDTPGLLDRPISERNEIEKQAILALRYLGNLIIYIFDPSEHCGFPLEEQIHLFEEVHGEFKDLPFLVVINKIDVADEENIKRLEKFVKEKGLNPIKISALKGTGIDLVKEEIIKTLRPLAEKVAREKIERELRRYRSYL”: the protein production entry was “not failed”.

In the case of “GHPTEVLCLMNMVLPEELLDDEEYEEIVEDVRDECSKYGLVKSIEIPRPVDGVEVPGCGKIFVEFTSVFDCQKAMQGLTGRKFANRVVVTKYCDPDSYHRRDFW”, the protein production entry is “not failed”.

Regarding “MLRGILWDMDGTLVDSEGIWAQATFAMSTEMGRRLTAAQQRETVGSSFNFTVSLCASNAGIELDSEAKNYWQSFMSHYVTEKFDSSLLPNPGIKEVLDSCRNAEIPMAIATNTIRSIANHSIGAVGIEYFKATVCGDEVANPKPAPDVYLKGAQALGVPPEGCIVFEDSKSGMLGGLAAGCIVISVVDHLNNQPLPEGVVPLSRLHGSADFRGVSAEEIMQWYATLSPNAQ”, the protein production entry is “failed”.

As for “MQEEFMKKNSIIAGLFVFCITTAGIGYTVYNSVYSDRQKHRINETAKLDSAKAPNELKDGEYTASAEGYEGPITVKVVIKEGKIFSVEVLSHNETPEYYEMAKKILQTIVEKNTFNVDSISGATVTSDAIKVAVYKALVQAGAKTSDVAEGLEKENEELRDKEKAKLLAKQSSAVAGKVGFNRNNLKDGTFIGVGRGYNGLIKVSISIKNGVIYDARVISHSDDYPYFTWASSVLNKVISGSTNIDTVSGATVSSRGILNAVKDALRKASNGNNSLDINSPDETEQNIPRQNRREIEQIKKYFKGLKDGVYFGKSNGYYTNSIEVKVTVKDGKIAKIELTKNDDDESYFDNKKAGILGERIISNQSTNIDTISGATTSSKGFINAVVNALEKAVDSNGSDADKYIYSPKTIIANVGETIGLQKIRDALEKLPEDVQINIKNNADTSSEGKTKIVVELIFKDNSKKIVEIPVLVNSKVDGSYKFLSAEEVKNLDKNVNYPDGVYYGDSYGFVSNKPIPVKVTIKNNKIENVELVKEELNRLKGVTSPGNVDDGGIFQEKFYTIIDRIKNMQKFESLIYKFEVLRDATSKVMEEARGKEQTVEVYRAALDKVIGKHNFGKWGLSIDESHLKGERNIHDRIFSLLKVYVKEELGYDGSDYDAVSGATFTATGTATSIKNALLKAKNFDFYDMRVDDSNFKTSYKEGDKLDLKDLKVTIYKKNNQKITVSYSDFGKYGLKVVDEYNKELKDGLVLNKENLGYNVTDGLRLKVVHEESKSFKFLNTILISKSTTKNFEISGIKIKAKDGSEWYDTKGYNTTDFIQNLTVSKEVAEKLNNKEIEFKIIAKDKKSSEEIEIPLRQAQNKTLIADFVSGEYTLDVIEKYKGVLFNNTFRIKTKVEGKIPKAFLYKETPETLIISKGTEITESKIRSVLKNLPDKTDISVLRGVDVNKVNETVLQKLLIKLKFDDGSEKEIEIDVIVKEKVISMADKYVYKPKDLITIKGKEVELSHLKNHLDDLPEGTKIEIIEKANVSEVNETGTLMKVSLEFTDKSTKDISINVVVKDTAPNKAEEFKILYPEIKNEIVNVVVKDPKYGNMKNFAETVKWGAFSDFAINRDLKLKSRSADISRIEVLKEPDRSKLGDQKGKIRLSFNDGSKLELEISVKIVPYPVYKIFRLTSNKTQYRLEDKFNLNDLKVTLFISNKLENESDWDTTGTPVLNIPYSDFYLFGIKVVDLDSKKEIENNSIISTLIKNKKLSVGAYCENLIQKNNYESGKKLVEIFNIKITNIDEWKESKKNIVEIKDEKNSKKADDSNKTGKVMASKKEIKNVDNLDNTSEKNKTIESENTTKDKVQRKDSDSGGKLSDDSSEKQNLKTNEKED”, the protein production result is “failed”.

As to “MKQWIAALLLMLIPGVQAAKPQKVTLMVDDVPVAQVLQALAEQEKLNLVVSPDVSGTVSLHLTDVPWKQALQTVVKSAGLITRQEGNILSVHSIAWQNDNIARQEAEQARAQANLPLENRSITLQYADAGELAKAGEKLLSAKGSMTVDKRTNRLLLRDNKTALSALEQWVAQMDLPVGQVELSAHIVTINEKSLRELGVKWTLADAQHAGGVGQVTTLGSDLSVATATTHVGFNIGRINGRLLDLELSALEQKQQLDIIASPRLLASHLQPASIKQESEIPYQVSSGESGATSVEFKEAVLGMEVTPTVLQKGRIRLKLHISQNVPGQVLQQADGEVLAIDKQEIETQVEVKSGETLALGGIFTRKNKSGQDSVPLLGDIPWFGQLFRHDGKEDERRELVVFITPRLVSSELEHHHHHH”, the protein production entry was “not failed”.

As for “MAKWRLATATLRRQLQSSSPTISTFKNPTKALSAAAHQSTRSYSTTQTDDSRGKWLTLPPFSPTIDGTAVGKDLLSDGDSVKSSTDNSKTTALRWILRCRPDLPRTLVQKLFRLRQVRREMSMSVDGDELQRSQLKRVAAKESLNVGDRIYLPLSVDNDTPQTPPAKKESFQCSDEERKFVCSLVLYKDPAIIVLNKPHGLAVQGGSGIKTSIDELAASCLKFDKSESPRLVHRLDRDCSGLLVLARTQTAATVLHSIFREKTTGASAYGVKKNVKSLKRKYMALVIGCPPRQRGQISAPLRKVVVDDGKSERITVNDNGELVSTQHAITEYRVIESSPHGYTWLELRPLTGRKHQLRVHCAEVLGTPIVGDYKYGWQAHKAREPFVSSENNPTKQSSSPFGLDLDGGDVSSKQPHLHLHSKQIDLPNISQLLEKMQVSSDSDISDLDSLKFDAPLPSHMQLSFNLLKSRVETCDKN”, the protein production result is listed as “failed”.

Consider “MSPDSCPLVKNILLLDSEGKRVAVKYYSDDWPTNAAKLSFEKYVFSKTSKTNARTEAEITLLDSNIIVYKFAQDLHFFVTGGENENELILASVLQGFFDAVALLLRSNVEKMEALENLDLIFLCLDEMVDQGVVLETDPNVIAGKVAMQSTEASGSLSEQTLTQALATAREHLARSLLT”, for which the protein production entry was “failed”.

Regarding “MALANFIDRAATAASQVLADFHLEDFKAALEKQVVAVAFDDQAASCAEGQATLDLAVRLLARLYPVLAILPLGSAASFQAQALERLAKSINPKVGIRRSGKSATICVVAGVTRPPLRCPTFFMGSDGWAAKLSRTDPVGSGSSLLPYGAGAASCFGAANVFRTIFAAQLTGAELDETIDLSLYSYDKTKAGEAGPIDIPVDLGETHLVGLGAIGHGSLWALARQPGLTGRLHVIDHEAIELSNLQRYVLAGQAEIGMSKAVLAATALRSTAIGVEAHPLTWAEYVARHGDWVFDRVGVALDTAADRLAVQGALPRWIANAWTQEHDLGISRHGFDDGQACLCCMYLPSGKSKDEHHLIAEELGIPEAHEQVKTLLQTNAGVPNDFVVRVATAMAVPFEPLAPFVGQPLRSFYQQAICGGLVFQLSDGSRRVRTVVPMAFQSALAGIMLAAELVKHSAGFPVGPTTSTRVNLLRPLGSRLHDPKAKDSSGRCICSDDDFIAAYRRKYGKSIVQLSDVSAA”, the protein production result is on record as “failed”.

As to “MPDATLSNTSLGRLAWLWLTVLIVAVDQVSKYYFENALSLYQQIIVIPDYFSWTLAYNTGAAFSFLADGAGWQRWLFALIAVVVSAVLVVWLKRLGRDDTWLAIALALVLGGALGNLYDRVVLGHVIDFILVHWQNRWYFPAFNVADSAITVGAIMLALDMFKSKKTGETVND”, the protein production entry is reported as “failed”.

Take “MEIKLFCVFIVFIILFSPFVIALSYPDVNYTAENGIIFVQNVTTGEKKPLYLHGVSWFGFELKDHVVYGLDKRNWKDILKDVKRLGFNAIRLPFCSESIRPDTRPSPERINYELNPDLKNLTSLEIMEKIIEYANSIGLYILLDYHRIGCEEIEPLWYTENYSEEQYIKDWIFLAKRFGKYPNVIGADIKNEPHGEAGWGTGDERDFRLFAEKVGREILKVAPHWLIFVEGTQYTHVPNIDEIIEKKGWWTFWGENLMGVKDYPVRLPRGKVVYSPHVYGPSVYMMDYFKSPDFPNNMPIIWETHFGYLTDLNYTLVIGEWGGNYEGLDKVWQDAFVKWLIKKKIYNFFYWCLNPESGDTGGIFLDDWKTVNWEKMRVIYRLIKAANPEFEEPLYIILKTNATTSILGVGERIRIYWYTNGKVIDSNFAHSSEGEMNITVTKSMTLYIIVKKGNQTLRKELKLYVIGGNYGSNISTTQLVTPKKGGERISTSLKLAISLLFILLFVWYLLREKH”: the protein production result is on record as “failed”.

Turning to “MRTRIERTEEMVEQLPLVSVLIPTYNRPSYFEKALCSVLEQTYPNIEIIVGDDSTNDETEKLLQKYLCDHSNIIYIKNRSTLGQFENALMLFNEANGEYINFLMDDDVFHVNKIEKMMKYFFNDLDNEIKLVTSHRQVIDDKGKELRHIYSTVRLFEEDTIIEGTELGNKVIVDQKNYIGEPTTVLFRKNDLQEPYGIFDKRRYLCNVDIASWLSLLSKGKAVYIAETLSYFRLHPDQQLNESNKMMDGLEDFSHSIIAGEQYGFLSTEKELDKAITNFLDYARRIVPSSILYTLDYYQKIRAKKINIEKKKQHINNNSSLPKVSILIPAYNRPYYLELALNSALNQTYENIEIIISDDSTNNEVNAMIQPYLREYECITYVKNETPLVAENFNKCVELANGDYMNFLLDDDLFHHEKIERMMKYFLTLENISFVTSYRELIDENGEILPPSTLNMKIAKETTLFEGKELGNYMLKNLKNVVGEPTTVLFNRDLFDGKFGYFKGKAYSAINDIATWLDMMRKGKVVYIHEPLSYFRQHSGQNQKQMHFILMTIEEWIELIIDAYNSGFLSSESEYKESLSYCLENAGFIVKDAVRNGELDQIYNEKIKKGLNKLVAHMFEKESCYCQYCNQQFEKFSPWPAHYDFPKYKFEMWNKDTGICPVCNSMDRERLYRAYIETETDLLNRNYTMLHIAPEAKLRDWFNEYKNITYVCGDLEPKDPLMKEIDVTRITYDSNTFDVILCSHVLEHVPDDDKAMRELYRVLKPNGWGIIQVPIVMNVDFIIENELIVTPQLRKLAFGQEDHVRIYNQSGFIQRLMNAGFKVELYNIAEKQGMKGARKFGLSETDMLYIVRK”, the protein production result is listed as “failed”.

For the sequence “MAGYVGDVAIAYDRDLGHVLFEQYASDIARRTAGKPVRDVLEVASGTGIVTRQLRNVLPGDAQLTAIDISDSMMEVARTKFLPHEQVTFQVANAVALPFDDRAFDTVVCQFGVMFFDKDKAFQETHRVLRQGGRYLFSVWDSRDYNPYASLTFEVMKQFFPSDPPRFLESTVSSFEIDPVKERLIRAGFEQISISVQRRIYDIPDIRAFARGLIFSPIINEIRERGEVDPDDIVEALVKIFIGEYGSNPTRFPMQAILFETEKPLEHHHHHH”, the protein production entry is listed as “failed”.
